Reference: patent WO2022250107A1 (dated 2022)

What was measured:
Test in all cases: cell-based or functional assay
[1] = target: S protein of SARS-CoV-2 alpha strain 2 (Accession ID EPI_ISL_804007; on infectious virus) (SARS-CoV-2, UniProt P0DTC2 14-1273)
[2] = target: S protein of SARS-CoV-2 alpha strain 1 (JPN/QK002/2020, Accession ID EPI_ISL_768526; on infectious virus) (SARS-CoV-2, UniProt P0DTC2 14-1273)
[3] = target: S protein of SARS-CoV-2 delta strain JPN/TKYTK1734/2021 (on infectious virus) (SARS-CoV-2, UniProt P0DTC2 14-1273)

Measured: 中和活性 IC50 (inhibition of infection of VeroE6/TMPRSS2 cells)

B1: EV053273 (antibody, V domains shown)
VH: QVQLVQSGAEVKEPGTSVKVSCKASGYIFTGYYIHWVRQAPGQGLEWMGWINPNSGGRNYTQKFQGRVTMTRDKSISTVYMELSGLRSDDTAIYYCARDNSWSTVQFCLDYWGQGTLVTVSS
VL: QSALTQPPSASGSPGQSVTISCTGTSSDVGSYNYVSWYQQYPGKAPKLMIYEVSKRPSGVPDRFSGSKSGNTASLTVSGLQAEDEADYYCSSYGGSNNLVFGGGTKLTVLG
≤ 10 ng/mL: [1] | [2] | [3]
